Data reported in patent US20220306733A1.

Each binder was assayed against Polyspecificity reagent (PSR): biotinylated soluble membrane proteins of CHO cells (assay: flow cytometry, biotinylated PSR on IgG-presenting yeast).

| Polyspecificity Reagent (PSR) Score (0-1) | Binder |
| --- | --- |
| 0.32 score 0-1 | anti-TIGIT antibody clone 29520 (antibody, V domains shown) VH: QVQLVESGGGLVQPGRSLRLSCAASGFTFRDYAMHWVRQAPGKGLEWVSGITWNSGLIGYADSVKGRFTISRDNAKNSLYLQMNSLRAEDTALYYCAKPVPRLRGLDVWGQGTMVTVSS VL: DIQLTQSPSSVSASVGDRVTITCRASQGISSWLAWYQQKPGKAPKLLIYGASSLQSGVPSRFSGSGSGTDFTLTISSLQPEDFATYYCQQAFYLPWTFGGGTKVEIK |
| 0 score 0-1 | anti-TIGIT antibody clone 26486 (antibody, V domains shown) VH: QVQLQESGPGLVKPSETLSLTCAVSGYSISSGYYWAWIRQPPGKGLEWIGSIYHSGSTYYNPSLKSRVTISVDTSKNQFSLKLSSVTAADTAVYYCAIEGANYYDFGYVAFDIWGQGTMVTVSS VL: EIVMTQSPATLSVSPGERATLSCRASQSVSSNLAWYQQKPGQAPRLLIYGASTRATGIPARFSGSGSGTEFTLTISSLQSEDFAVYYCQQSPPWPRTFGGGTKVEIK |
| 0.1 score 0-1 | anti-TIGIT antibody clone 29499 (antibody, V domains shown) VH: QLQLQESGPGLVKPSETLSLTCTVSGGSISSSRYYWAWIRQPPGKGLEWIGSIGTSGSTYYNPSLKSRVTISVDTSKNQFSLKLSSVTATDTAVYYCAIEGANFRDFGYVAFDIWGQGTMVTVSS VL: EIVMTQSPATLSVSPGERATLSCRASQSVSSNLAWYQQKPGQAPRLLIYGASTRATGIPARFSGSGSGTEFTLTISSLQSEDFAVYYCQQSPPWPRTFGGGTKVEIK |

The remaining lines, values behind:

| Binder | Polyspecificity Reagent (PSR) Score (0-1) |
| --- | --- |
| anti-TIGIT antibody clone 26493 (antibody, V domains shown) VH: EVQLVESGGGLVQPGRSLRLSCAASGFTFGDYAMHWVRQAPGKGLEWVSGITWNSGSIGYADSVKGRFTISRDNAKNSLYLQMNSLRAEDTALYYCAKPVPKSRGLDVWGQGTMVTVSS VL: DIQLTQSPSSVSASVGDRVTITCRASQGISSWLAWYQQKPGKAPKLLIYGASSLQSGVPSRFSGSGSGTDFTLTISSLQPEDFATYYCQQAFYLPWTFGGGTKVEIK | 0 score 0-1 |
| anti-TIGIT antibody clone 29523 (antibody, V domains shown) VH: EVQLVESGGGVVQPGRSLRLSCAASGFTFGSYYMHWVRQAPGKGLEWVAVIWPDGSNKLYADSVKGRFTISRDNSKNTLYLQMNSLRAEDTALYYCAKPVPKSRALDVWGQGTMVTVSS VL: DIQLTQSPSSVSASVGDRVTITCRASQGISSWLAWYQQKPGKAPKLLIYGASSLQSGVPSRFSGSGSGTDFTLTISSLQPEDFATYYCQQAFYLPWTFGGGTKVEIK | 0.12 score 0-1 |
| anti-TIGIT antibody clone 29527 (antibody, V domains shown) VH: QVQLVESGGGVVQPGRSLRLSCAASGFTFSSSYMHWVRQAPGKGLEWVAVIGADGSNKYYADSVEGRFTISRDNSKNTLYLQMNSLRAEDTALYYCAKPVPRRRGLDVWGQGTMVTVSS VL: DIQLTQSPSSVSASVGDRVTITCRASQGISSWLAWYQQKPGKAPKLLIYGASSLQSGVPSRFSGSGSGTDFTLTISSLQPEDFATYYCQQAFYLPWTFGGGTKVEIK | 0.12 score 0-1 |
| anti-TIGIT antibody clone 31288 (antibody, V domains shown) VH: QLQLQESGPGLVKPSETLSLTCTVSGGSISSGSYYLAWIRQPPGKGLEWIGSIFRSGSTYYNPSLESRVTISVDTSKNQFSLKLSSVTAADTAVYYCAIEGANFKDFGYVAFDIWGQGTTVTVSS VL: EIVMTQSPATLSVSPGERATLSCRASQSVSSNLAWYQQKPGQAPRLLIYGASTRATGIPARFSGSGSGTEFTLTISSLQSEDFAVYYCQQSPPWPRTFGGGTKVEIK | 0 score 0-1 |
| anti-TIGIT antibody clone 29494 (antibody, V domains shown) VH: QVQLQESGPGLVKPSETLSLTCTVSGGSISSGSYYLAWIRQPPGKGLEWIGSIFRSGSTYYNPSLESRVTISVDTSKNQFSLKLSSVTAADTAVYYCAIEGANFKDFGYVAFDIWGQGTMVTVSS VL: EIVMTQSPATLSVSPGERATLSCRASQSVSSNLAWYQQKPGQAPRLLIYGASTRATGIPARFSGSGSGTEFTLTISSLQSEDFAVYYCQQSPPWPRTFGGGTKVEIK | 0 score 0-1 |
| anti-TIGIT antibody clone 32931 (antibody, V domains shown) VH: QLQLQESGPGLVKPSETLSLTCTVSGGSISSGSYYLAWIRQPPGKGLEWIGSIFRSGSTYYNPSLESRVTISVDTSKNQFSLKLSSVTAADTAVYYCAIEGANFKDFGYVAFDIWGQGTTVTVSS VL: EIVMTQSPATLSVSPGERATLSCRASKSVSSNLAWYQQKPGQAPRLLIYFASTRATGIPARFSGSGSGTEFTLTISSLQSEDFAVYYCQQTSPWPRTFGGGTKVEIK | 0 score 0-1 |
| anti-TIGIT antibody clone 29513 (antibody, V domains shown) VH: QVQLVQSGAEVKKPGSSVKVSCKASGGTFQNYAISWVRQAPGQGLEWMGVIVPIFGTANYAQKFQGRVTVTADESTSTAYMELSSLRSEDTAVYYCARLHLGQKAYYGMDVWGQGTTVTVSS VL: DIQMTQSPSSLSASVGDRVTITCRASQSISSYLNWYQQKPGKAPKLLIYAASSLQSGVPSRFSGSGSGTDFTLTISSLQPEDFATYYCQQRYVFPPTFGGGTKVEIK | 0.01 score 0-1 |
